Experiments:
Format in all cases: in vivo, rat
[1] = tested on: adult male rats bilaterally exposed to noise; assay: Noise-induced cochlear synaptopathy, ABR and wave I amplitude at various BDNF concentrations (Example K); details: at all three BDNF concentrations (0.005%, 0.05%, 0.5% BDNF in P407), vs P407 vehicle alone
Method: (§1) Animals: Male Sprague-Dawley rats (5-6 months of age) were used for efficacy studies and females (2-3 months) were used for pharmacokinetic studies.
Formulations: Human recombinant BDNF was suspended in the thermoreversible polymer Poloxamer 407 (16%) to reach a range of BDNF concentrations (0.005%, 0.05%, and 0.5% by weight).
(§2) Intratympanic (IT) injection: Formulations were administered under anesthesia as a single IT injection (20 μl) through the tympanic membrane into the middle ear, targeting the round window membrane (RWM).
(§3) Noise-induced cochlear synaptopathy: Rats received a single acoustic trauma (105 dB SPL, 8-16 kHz, 1 h) under anesthesia. 24 hours later (Day 1) animals received a single bilateral IT injection of the treatment regimens. Auditory function (ABR and ABR wave 1 amplitude) was monitored at day 1 and then every 7 days for 28 days, as illustrated in FIG. 16. At termination (Day 28), cochleae were collected and assessed for evidence of cochlear synaptopathy (IHC synaptic puncta counts).
Intratympanic BDNF improves Auditory Brainstem Response (ABR) thresholds and wave I amplitudes in adult rats. The Auditory Brainstem Response (ABR) is an objective test that measures hearing sensitivity and can identify abnormalities in the peripheral auditory system and the auditory pathway up through the brainstem. […]

[2] = tested on: noise exposed adult rats; assay: Noise-induced hearing loss/synaptopathy, synaptic analysis of inner hair cells (Example A1); details: sustained release formulation, 0.005% BDNF in Poloxamer 407, single unilateral intratympanic administration 24 hrs after noise; Day 28; compared to vehicle treatment; FIG. 3B
Method: Male rats (Charles River) approximately 10-11 months of age served as subjects (N=6 per group). Prior to any procedures, animals were anesthetized using a combination of xylazine (10 mg/kg) and ketamine (90 mg/kg) for up to one hour via the intraperitoneal route. If needed, an intraoperative booster was administered intraperitoneally representing one-tenth of the original dose.
Noise exposure—Anesthetized animals (4 at a time) were placed in an enclosure and exposed to noise. The characteristics of the acoustic trauma were as follows: a single period of 1 h, sound pressure level of 105 dB SPL with a narrow band pass of 8-16 kHz. Noise was delivered using a Grason Stadler white noise generator, filtered through a Krohn Hite 3750 unit, amplified using a Crown D75 unit, and conveyed via a JBL speaker (model 2446H). Following treatment, the animals were returned to the vivarium. Noise exposure was calibrated over a range of 80-115 dB SPL across a wide range of frequencies using the Acoustical Interface Precision Microphone System and the Tucker Davis Technologies system. […]
Synaptic Analysis—Flat-mounted cochlear pieces from each ear were imaged at low magnification (10×) and the total length of the imaged tissue was measured and the frequency domains (4, 10, 20 and 40 kHz) were mapped onto the images. […]

[3] = tested on: adult rats following noise damage; assay: Noise-induced cochlear synaptopathy, IHC synaptic puncta counts (Example G); details: each frequency region throughout the cochlea; BDNF in P407 after noise; Day 28; FIG. 13C
Method: as §1
Formulations: Human recombinant BDNF was suspended in the thermoreversible polymer Poloxamer 407 (16%) to reach a range of BDNF concentrations.
as §2
as §3, with “Rats (n=44 per treatment group)” for “Rats”, “days.” for “days, as illustrated in FIG. 16.”
Immunohistochemistry: Dissected cochleae were immunostained with antibodies against presynaptic (CtBP2) and postsynaptic (GluR2) proteins and MyosinVIIa to label hair cells. Cochleae were then frequency mapped and high-magnification images were obtained with a Zeiss LSM-880 confocal microscope and imaged at an interval of 0.35 μm.
Intratympanic BDNF repairs cochlear synaptopathy in adult rats. […]

B1: brain-derived neurotrophic factor (protein, UniProt P23560 129-247, looked up)
Neurotrophic factor BDNF: HSDPARRGELSVCDSISEWVTAADKKTAVDMSGGTVTVLEKVPVSKGQLKQYFYETKCNPMGYTKEGCRGIDKRHWNSQCRTTQSYVRALTMDSKKRIGWRFIRIDTSCVCTLTIKRGR
modifications: Neurotrophic factor BDNF in 16% poloxamer 407 gel
notes: Human recombinant BDNF
ABR threshold shift ([1]; intratympanic injection 24 hours after noise exposure, FIG. 17): more rapid recovery of initial threshold shifts and overall reduced levels of hearing loss
wave I amplitudes ([1]; FIG. 18): significant improvements
number of ribbon synapses per inner hair cell [2]: increased
synaptic puncta (co-expression of CtBp2 and GluR2) per inner hair cell [3]: increased

From patent US20230122991A1, “GROWTH FACTOR FORMULATION FOR CONDITION ASSOCIATED WITH OTIC EVENT” (OTONOMY, INC., priority 2020, published 2023)
